*1 amine or outer side, *2 acyl side, *3 side chain or, on linkers, in order; H or OH if unused. Where a SMILES comes first, the peptide text is derived from it. [ ]: non-standard residue; d: D form. The star is where a group is joined. ξ: configuration not given here. Doxorubicin(3'-N) = COc1cccc2c1C(=O)c1c(O)c3c(c(O)c1C2=O)C[C@@](O)(C(=O)CO)C[C@@H]3O[C@H]1C[C@H](N*)[C@H](O)[C@H](C)O1; Dovitinib(4-NH) = CN1CCN(c2ccc3nc(-c4c(N*)c5c(F)cccc5[nH]c4=O)[nH]c3c2)CC1; Thyronine(3,5,3'-I3) = N[C@@H](Cc1cc(I)c(Oc2ccc(O)c(I)c2)c(I)c1)C(=O)O; Mal(CH2CH2O)6CH2CH2CO = O=C1C=CC(=O)N1CCOCCOCCOCCOCCOCCOCCC(=O)*; X9 = O=C([C@@H](Cc1cc(I)c(Oc2ccc(O)c(I)c2)c(I)c1)N[*:1])[*:2]; Hexanoyl(6-maleimido) = O=C1C=CC(=O)N1CCCCCC(=O)*; Resiquimod = CCOCc1nc2c(N*)nc3ccccc3c2n1CC(C)(C)O; Propanoyl(3-maleimido) = O=C1C=CC(=O)N1CCC(=O)*; X1 = O=C1C=CC(=O)N1CCOCCOCCOCCC(=O)*; PABC = O=C(OCc1ccc(N[*:1])cc1)[*:2]; X3 = O=C1C=CC(=O)N1CCOCCOCCC(=O)*; PEG3 = NCCOCCOCCOCCC(=O)O; ξN = NC(=O)CC(N)C(=O)O
Assay: Water solubility test (observation and HPLC)
Assay type: physicochemical
Conditions: thermodynamic from solid
Procedure: The compounds prepared in accordance with the examples of the disclosure and the reference compounds C1, C2, C3 and C4 were lyophilized (−70° C.).

| Compound | solubility |
| --- | --- |
| COc1cccc2c1C(=O)c1c(O)c3c(c(O)c1C2=O)C[C@@](O)(C(=O)CO)C[C@@H]3O[C@H]1C[C@H](NC(=O)[C@H](CC(C)C)NC(=O)[C@H](CC(N)=O)NC(=O)[C@H](C)NC(=O)[C@H](C)NC(=O)[C@@H](NC(=O)CCCCCN2C(=O)C=CC2=O)C(C)C)[C@H](O)[C@H](C)O1 [QHL-123-DOX] ({Hexanoyl(6-maleimido)}-VAANL-{Doxorubicin(3'-N)}) | > 2000 µg/mL |
| C[C@H](NC(=O)CCOCCOCCN1C(=O)C=CC1=O)C(=O)N[C@@H](C)C(=O)N[C@H](CC(N)=O)C(=O)N[C@@H](Cc1cc(I)c(Oc2ccc(O)c(I)c2)c(I)c1)C(=O)O [QHL-153-T3] (X3-AA[dN][Thyronine(3,5,3'-I3)]-OH) | > 10000 µg/mL |
| C[C@H](NC(=O)[C@H](C)NC(=O)[C@@H](CCC(=O)O)NC(=O)CCCCCN1C(=O)C=CC1=O)C(=O)N[C@@H](CC(N)=O)C(=O)N[C@H](Cc1cc(I)c(Oc2ccc(O)c(I)c2)c(I)c1)C(=O)O [QHL-161-T3] ({Hexanoyl(6-maleimido)}-[dE]AAN[X9]-OH) | > 10000 µg/mL |
| C[C@@H](NC(=O)CCOCCOCCOCCNC(=O)CCN1C(=O)C=CC1=O)C(=O)N[C@H](C)C(=O)N[C@H](CC(N)=O)C(=O)Nc1ccc(COC(=O)Nc2nccc(-c3sc(C(C)(C)C)nc3-c3cccc(CS(=O)(=O)c4c(F)cccc4F)c3F)n2)cc1 [QHL-089-dabrafenib] | > 20000 µg/mL |
| CCOCc1nc2c(NC(=O)OCc3ccc(NC(=O)[C@H](CC(N)=O)NC(=O)[C@H](C)NC(=O)[C@H](C)NC(=O)CCOCCOCCOCCOCCOCCOCCOCCOCCOCCOCCOCCOCCN4C(=O)C=CC4=O)cc3)nc3ccccc3c2n1CC(C)(C)O [QHL-147-Resiquimod] | > 10000 µg/mL |
| C[C@H](NC(=O)CCOCCOCCOCCN1C(=O)C=CC1=O)C(=O)N[C@@H](C)C(=O)N[C@H](CC(N)=O)C(=O)N[C@@H](Cc1cc(I)c(Oc2ccc(O)c(I)c2)c(I)c1)C(=O)O [QHL-154-T3] (X1-AA[dN][Thyronine(3,5,3'-I3)]-OH) | > 10000 µg/mL |
| C[C@@H](NC(=O)CCOCCOCCOCCNC(=O)CCN1C(=O)C=CC1=O)C(=O)N[C@H](C)C(=O)N[C@H](CC(N)=O)C(=O)Nc1ccc(COC(=O)Nc2c(-c3nc4ccc(N5CCN(C)CC5)cc4[nH]3)c(=O)[nH]c3cccc(F)c23)cc1 [QHL-089 - Dovitinib] | > 20000 µg/mL |
| C[C@H](NC(=O)[C@H](C)NC(=O)[C@@H](CC(=O)O)NC(=O)CCCCCN1C(=O)C=CC1=O)C(=O)NC(CC(N)=O)C(=O)N[C@H](Cc1cc(I)c(Oc2ccc(O)c(I)c2)c(I)c1)C(=O)O (some centres unmarked) [QHL-162-T3] ({Hexanoyl(6-maleimido)}-[dD]AA[ξN][X9]-OH) | > 10000 µg/mL |
| CC(C)C[C@H](NC(=O)[C@H](CC(N)=O)NC(=O)[C@H](C)NC(=O)[C@H](C)NC(=O)CCOCCOCCOCCNC(=O)CCN1C(=O)C=CC1=O)C(=O)Nc1c(-c2nc3ccc(N4CCN(C)CC4)cc3[nH]2)c(=O)[nH]c2cccc(F)c12 [QHL-090 - Dovitinib] ({Propanoyl(3-maleimido)-PEG3}-AANL-{Dovitinib(4-NH)}) | > 10000 µg/mL |
| CCOCc1nc2c(NC(=O)OCc3ccc(NC(=O)[C@H](CC(N)=O)NC(=O)[C@H](C)NC(=O)[C@H](C)NC(=O)CCCCCN4C(=O)C=CC4=O)cc3)nc3ccccc3c2n1CC(C)(C)O [QHL-140-Resiquimod] | > 10000 µg/mL |
| CCOCc1nc2c(NC(=O)OCc3ccc(NC(=O)[C@@H](CC(N)=O)NC(=O)[C@H](C)NC(=O)[C@H](C)NC(=O)CCOCCOCCN4C(=O)C=CC4=O)cc3)nc3ccccc3c2n1CC(C)(C)O [QHL-005-Resiquimod] | > 10000 µg/mL |
| CCOCc1nc2c(NC(=O)OCc3ccc(NC(=O)[C@H](CC(N)=O)NC(=O)[C@H](C)NC(=O)[C@H](C)NC(=O)[C@H](CCC(=O)O)NC(=O)CCCCCN4C(=O)C=CC4=O)cc3)nc3ccccc3c2n1CC(C)(C)O [QHL-116-Resiquimod] ({Hexanoyl(6-maleimido)}-EAAN[PABC]-Resiquimod) | > 10000 µg/mL |
| C[C@H](NC(=O)CCOCCOCCOCCOCCOCCOCCN1C(=O)C=CC1=O)C(=O)N[C@@H](C)C(=O)N[C@H](CC(N)=O)C(=O)N[C@@H](Cc1cc(I)c(Oc2ccc(O)c(I)c2)c(I)c1)C(=O)O [QHL-155-T3] ({Mal(CH2CH2O)6CH2CH2CO}-AA[dN][Thyronine(3,5,3'-I3)]-OH) | > 10000 µg/mL |
| CCOCc1nc2c(NC(=O)OCc3ccc(NC(=O)[C@H](CC(N)=O)NC(=O)[C@H](C)NC(=O)[C@H](C)NC(=O)CCOCCOCCOCCOCCOCCOCCNC(=O)CCN4C(=O)C=CC4=O)cc3)nc3ccccc3c2n1CC(C)(C)O [QHL-095-Resiquimod] | > 10000 µg/mL |

— patent US20230414771A1, “PREPARATION AND USE OF IMMUNOSTIMULATORY CONJUGATED COMPLEXES FOR TARGETED DELIVERY AND ACTIVATION” (YAFEI SHANGHAI BIOLOGY MEDICINE SCIENCE & TECHNOLOGY CO., …, priority 2020, published 2023)
